For experiment [1], the target named is T1, TNFR2 on human cells (Kym-1 cells; human CD3+ T cells) (human, UniProt P20333 23-461).
T1 sequence (looked up): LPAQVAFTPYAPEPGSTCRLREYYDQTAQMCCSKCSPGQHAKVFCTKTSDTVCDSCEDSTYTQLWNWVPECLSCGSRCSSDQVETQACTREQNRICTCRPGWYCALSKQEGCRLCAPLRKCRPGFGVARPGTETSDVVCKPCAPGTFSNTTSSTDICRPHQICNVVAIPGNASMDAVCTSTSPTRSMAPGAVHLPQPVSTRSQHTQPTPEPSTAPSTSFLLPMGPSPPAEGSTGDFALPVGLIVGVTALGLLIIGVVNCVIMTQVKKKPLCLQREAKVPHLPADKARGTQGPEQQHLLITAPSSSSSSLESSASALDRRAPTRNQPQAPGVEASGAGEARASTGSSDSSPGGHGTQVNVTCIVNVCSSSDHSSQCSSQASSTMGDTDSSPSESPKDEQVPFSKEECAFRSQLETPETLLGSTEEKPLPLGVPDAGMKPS
In words: cell-based or functional assay.

Experiment [2] deals with T2, human TNFR2-Fc fusion protein (human, UniProt P20333 23-257).
T2 construct: also called huTNFR2-Fc; huTNFR2
T2 sequence (looked up): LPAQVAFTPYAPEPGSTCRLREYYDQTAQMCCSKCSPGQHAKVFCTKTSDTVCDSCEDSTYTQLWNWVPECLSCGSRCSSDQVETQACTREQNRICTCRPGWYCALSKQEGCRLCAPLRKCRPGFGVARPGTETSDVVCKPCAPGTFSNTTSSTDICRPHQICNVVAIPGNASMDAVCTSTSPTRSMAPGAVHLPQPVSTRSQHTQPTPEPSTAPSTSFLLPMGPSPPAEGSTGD
In words: ELISA, huTNFR2-Fc coated at 1 µg/ml, bound protein detected with anti-TNF F6C5. The procedure:
ELISA plates (Greiner, Frickenhausen, Germany) were coated with huTNFR1-Fc, mTNFR1-Fc, huTNFR2-Fc or mTNFR2-Fc fusion proteins at 1 μg/ml in PBS and incubated at 4° C. overnight. Residual binding sites were blocked with 2% skim milk powder in PBS at RT for 2 hours. ScTNFR2 and the complexes were diluted in 2% skim milk powder in PBS and added at concentrations in the range of 10⁻³ to 10 nM and incubated for 1 hour at RT. Between each step, non-bound proteins were removed by washing 4 times with 0.005% Tween-20 in PBS.
Bound proteins were detected with mouse monoclonal antibodies to TNF (clone F6C5; 1 μg/ml; incubation for 1 hour at RT) and HRP-conjugated anti-mouse IgG antibodies (diluted 1:10000; incubation for 1 hour at RT), followed by incubation with tetramethylbenzidine (TMB) substrate solution. Reaction was stopped by addition of 1 M H₂SO₄ and the absorbance at 450 nm was determined with a Multiskan FC absorbance reader (Thermo Scientific, Karlsruhe, Germany) and data were analyzed using the software Microsoft Excel and GraphPad Prism 4 (GraphPad, La Jolla, Calif.) (FIG. 5). In Table 3, the calculated EC₅₀ values for the binding of TNF, scTNFR2 and the complexes to immobilized huTNFR2 and mTNFR2 based on the ELISA assay are summarized.
Background: An ELISA detects its analyte on a solid surface through an enzyme-linked reagent.

Experiment [3] has as its target T1, TNFR2 on human cells (Kym-1 cells; …). Put plainly: cell-based or functional assay. This is another data set of the same source.

B1: EHD2-scTNFR2 (human) (ligand)
chain: DFTPPTVKILQSSCDGGGHFPPTIQLLCLVSGYTPGTINITWLEDGQVMDVDLSTASTTQEGELASTQSELTLSQKHWLSDRTYTCQVTYQGHTFEDSTKKCADSNGGGSGGGSGGGSGGGSGGGSGGSEFLASSRTPSDKPVAHVVANPQAEGQLQWLNRRANALLANGVELRDNQLVVPSEGLYLIYSQVLFKGQGCPSTHVLLTHTISRIAVSYQTKVNLLSAIKSPCQRETPEGAEAKPWYEPIYLGGVFQLEKGDRLSAEINRPDYLNFRESGQVYFGIIALGGGGSSSRTPSDKPVAHVVANPQAEGQLQWLNRRANALLANGVELRDNQLVVPSEGLYLIYSQVLFKGQGCPSTHVLLTHTISRIAVSYQTKVNLLSAIKSPCQRETPEGAEAKPWYEPIYLGGVFQLEKGDRLSAEINRPDYLNFRESGQVYFGIIALGGGGSSSRTPSDKPVAHVVANPQAEGQLQWLNRRANALLANGVELRDNQLVVPSEGLYLIYSQVLFKGQGCPSTHVLLTHTISRIAVSYQTKVNLLSAIKSPCQRETPEGAEAKPWYEPIYLGGVFQLEKGDRLSAEINRPDYLNFRESGQVYFGIIAL
notes: Hexavalent dimer of two subunits; also called hexavalent EHD2-scTNFR2
A word on the EC50: it is the midpoint of the concentration-response curve. Higher therefore signals lower potency in that assay. On to B1, for which the “EC50 of Kym-1 cell viability (crystal violet assay after 16 h)” value in experiment [1] was determined as 37000 nM. Moreover, the 50% effective concentration (EC50) in experiment [2] turned out to be 0.508 nM. The “EC50 values (nM) of cell death induction using Kym-1 cells” value in experiment [3] was determined as 0.0126 nM.

The record behind these values is patent publication US20210395323A1 (UNIVERSIT T STUTTGART, published 2021).
